In article PMC6648332 (Nucleic Acids Research, 2019):

Biological target: the molecule itself
Experiment: SEC

B1: 3′-5′ exonuclease domain of human EXD2 (residues 76−295, EXD2-exo) (domain or fragment, UniProt Q9NVH0 76-295, looked up)
chain: KAKVVTVSQEAEWDQIEPLLRSELEDFPVLGIDCEWVNLEGKASPLSLLQMASPSGLCVLVRLPKLICGGKTLPRTLLDILADGTILKVGVGCSEDASKLLQDYGLVVRGCLDLRYLAMRQRNNLLCNGLSLKSLAETVLNFPLDKSLLLRCSNWDAETLTEDQVIYAARDAQISVALFLHLLGYPFSRNSPGEKNDDHSSWRKVLEKCQGVVDIPFRSK
stoichiometry N: 2
